What was measured:
[1] = system: Daudi cells; assay: Cytotoxic activity of cultured γδ T cell population, Calcein-AM release; assay type: cell-based, human; conditions: γδ T cells expanded 14 days with pamidronate on immobilized FN fragment; target cells Daudi; E/T 30; 4 hours
Protocol: The cytotoxic activity was determined for the cells on the fourteenth day from the initiation of culture prepared in Example 3-(1). The cytotoxic activity was evaluated by a method for assaying cytotoxic activity using Calcein-AM [Lichtenfels R. et al., J. Immunol. Methods 172(2), 227-239 (1994)]. […]
The cells on the fourteenth day from the initiation of culture prepared in Example 3-(1) were diluted with an RPMI 1640 medium containing 5% (v/v) human AB serum, 0.1 mM NEAA mixture, 1 mM sodium pyruvate (all manufactured by Cambrex), 2 mM L-glutamine, 10 μg/mL streptomycin sulfate (hereinafter referred to as “5HRPMI”) as effector cells, so as to have a concentration of 3×10^6 cells/mL. […] Upon the addition, the ratio of the effector cells (E) to the Calcein-labeled target cells (T) is expressed as an E/T ratio, and the measurements were made at an E/T ratio of 30. […] Thereafter, 100 μL of the culture supernatant was collected from each well, and the amount of Calcein released into the culture supernatant was determined with a fluorescence plate reader (Mithras LB 940, manufactured by BERTHOLD TECHNOLOGIES) (excited at 485 nm/measured at 535 nm). The “cytotoxic activity (%)” was calculated in accordance with the following formula.
Cytotoxic Activity (%)={(Measured Value in Each Well−Minimum Released Amount)/(Maximum Released Amount−Minimum Released Amount)}×100 […]

[2] = system: γδ T cells; assay: Expansion of γδ T cell population using pamidronate, CH-296 plate (Example 3); assay type: cell-based; conditions: human PBMCs; IMDM; pamidronate 5 μM; immobilized CH-296; day 14
Protocol: The expansion was carried out in the same manner as Example 2, except that a plate immobilized with CH-296 prepared in Example 1-(2) was used.
The ratio of the γδ T cells was analyzed according to flow cytometry for PBMCs prepared in Example 1-(1) and the cells on the fourteenth day from the initiation of culture prepared in Example 3-(1), in the same manner as in Example 1-(4). As a result, the ratio of γδ T cells was 8.9% for the PBMCs, and the ratio was from 96.0 to 96.9% for the cells on the fourteenth day from the initiation of culture.
(§1) The number of live cells was counted according to trypan blue staining method for the cells on the fourteenth day from the initiation of culture prepared in Example 3-(1). The expansion fold of γδ T cells was calculated in comparison of the counted number with the number of γδ T cells at the initiation of culture, in the same manner as in Example 1-(5).

[3] = system: γδ T cells; assay: Expansion of γδ T cell population using zoledronate (Example 5); assay type: cell-based; conditions: human PBMCs; RPMI 1640, then 10HRPMI+L-Gln; stimulant zoledronate 1 μM for 48 hours; IL-2 100 U/mL; immobilized FN fragment; day 14
Protocol: The immobilization of an FN fragment was carried out in the same manner as in Example 1-(2), provided that a 6-well cell culture plate was used as a plate to be immobilized, and that an ACD-A solution (pH 5.0) containing H296-H296 (final concentration: 3 μg/mL) was added in a volume of 1.2 mL/well each.
PBMCs prepared in Example 1-(1) were suspended in an RPMI 1640 medium containing 0.25% (w/v) HSA so as to have a concentration of 1×10^6 cells/mL, to prepare a cell suspension. Thereafter, the above cells were added to a plate to which nothing was immobilized, or the plate immobilized with H296-H296 prepared in Example 5-(1), in a volume of 5 mL/well each. […]
The ratio of γδ T cell was analyzed according to flow cytometry for PBMCs prepared in Example 1-(1) and the cells on the fourteenth day from the initiation of culture prepared in Example 5-(2), in the same manner as in Example 1-(4). […]
as §1, with “5-(2).” for “3-(1).”

Molecule | Cytotoxic Activity (%) [1] [%] | expansion fold of γδ T cells compared to control group [2] | Expansion Fold of γδ T Cells (Folds) Fourteenth Day of Culture [3]
CH-296: polypeptide comprising a cell binding domain, a heparin binding domain and a CS-1 domain of fibronectin (SEQ ID NO: 13) | 33.23 | high expansion fold of γδ T cells during the culture, as compared to that of the control group | –
H296-H296: modified fibronectin fragment in which two H-296's are connected to each other (SEQ ID NO: 22) (protein, Fibronectin fragment named H296-H296) AIPAPTDLKFTQVTPTSLSAQWTPPNVQLTGYRVRVTPKEKTGPMKEINLAPDSSSVVVSGLMVATKYEVSVYALKDTLTSRPAQGVVTTLENVSPPRRARVTDATETTITISWRTKTETITGFQVDAVPANGQTPIQRTIKPDVRSYTITGLQPGTDYKIYLYTLNDNARSSPVVIDASTAIDAPSNLRFLATTPNSLLVSWQPPRARITGYIIKYEKPGSPPREVVPRPRPGVTEATITGLEPGTEYTIYVIALKNNQKSEPLIGRKKTDELPQLVTLPHPNLHGPEILDVPSTAMAIPAPTDLKFTQVTPTSLSAQWTPPNVQLTGYRVRVTPKEKTGPMKEINLAPDSSSVVVSGLMVATKYEVSVYALKDTLTSRPAQGVVTTLENVSPPRRARVTDATETTITISWRTKTETITGFQVDAVPANGQTPIQRTIKPDVRSYTITGLQPGTDYKIYLYTLNDNARSSPVVIDASTAIDAPSNLRFLATTPNSLLVSWQPPRARITGYIIKYEKPGSPPREVVPRPRPGVTEATITGLEPGTEYTIYVIALKNNQKSEPLIGRKKTDELPQLVTLPHPNLHGPEILDVPST | – | – | ×107.5 Folds
